Laboratory results reported in patent US20140363428A1 (Chugai, published 2014).

Target: T1, soluble human FcRn (human, UniProt P55899 24-297; P61769 21-119)
T1 construct: Heterodimer of alpha chain and beta2-microglobulin; also called hFcRn
Test: SPR (Biacore), pH 7.0

T1 sequence (P55899 24-297 limits assumed, chain 1 of 2): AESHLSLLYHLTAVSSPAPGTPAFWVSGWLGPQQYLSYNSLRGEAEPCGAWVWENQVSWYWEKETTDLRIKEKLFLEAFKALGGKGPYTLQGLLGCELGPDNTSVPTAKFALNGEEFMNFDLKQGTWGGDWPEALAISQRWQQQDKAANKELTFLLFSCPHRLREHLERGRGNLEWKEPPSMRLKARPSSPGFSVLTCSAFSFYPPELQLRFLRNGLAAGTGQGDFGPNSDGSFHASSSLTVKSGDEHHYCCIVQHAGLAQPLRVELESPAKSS
T1 sequence (P61769 21-119 limits assumed, chain 2 of 2): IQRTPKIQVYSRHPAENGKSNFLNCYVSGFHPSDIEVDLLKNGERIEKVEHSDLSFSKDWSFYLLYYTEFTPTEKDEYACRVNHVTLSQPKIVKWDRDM

| Binder | Kd |
| --- | --- |
| F1579 (antibody) chain 1: QVQLQESGPGLVKPSETLSLTCAVSGHSISHDHAWSWVRQPPGEGLEWIGFISYSGITNYNPSLQGRVTISRDNSKNTLYLQMNSLRAEDTAVYYCARSLARTTAMDYWGEGTLVTVSSASTKGPSVFPLAPSSKSTSGGTAALGCLVKDYFPEPVTVSWNSGALTSGVHTFPAVLQSSGLYSLSSVVTVPSSSLGTQTYICNVNHKPSNTKVDKKVEPKSCDKTHTCPPCPAPELRGGPKVFLFPPKPKDTLYITREPEVTCVVVDVSHEDPEVKFNWYVDGVEVHNAKTKPREEQYNSTYRVVSVLTVLHQDWLNGKEYKCKVSNKALPAPIEKTISKAKGQPREPQVYTLPPSRDELTKNQVSLTCLVKGFYPSDIAVEWESNGQPENNYKTTPPVLDSDGSFFLYSKLTVDKSRWQQGNVFSCSVMHEALSYHVTRKELSLSP chain 2: DIQMTQSPSSLSASVGDSVTITCQASTDISSHLNWYQQKPGKAPELLIYYGSHLLSGVPSRFSGSGSGTDFTFTISSLEAEDAATYYCGQGNRLPYTFGQGTKVEIERTVAAPSVFIFPPSDEQLKSGTASVVCLLNNFYPREAKVQWKVDNALQSGNSQESVTEQDSKDSTYSLSSTLTLSKADYEKHKVYACEVTHQGLSSPVTKSFNRGEC | 54 nM |
| F1641 (antibody) chain 1: QVQLQESGPGLVKPSETLSLTCAVSGHSISHDHAWSWVRQPPGEGLEWIGFISYSGITNYNPSLQGRVTISRDNSKNTLYLQMNSLRAEDTAVYYCARSLARTTAMDYWGEGTLVTVSSASTKGPSVFPLAPSSKSTSGGTAALGCLVKDYFPEPVTVSWNSGALTSGVHTFPAVLQSSGLYSLSSVVTVPSSSLGTQTYICNVNHKPSNTKVDKKVEPKSCDKTHTCPPCPAPELRGGPKVFLFPPKPKDTLYITREPEVTCVVVDVSHEDPEVKFNWYVDGVEVHNAKTKPREEQYNSTYRVVSVLTVLHQDWLNGKEYKCKVSNKALPAPIEKTISKAKGQPREPQVYTLPPSRDELTKNQVSLTCLVKGFYPSDIAVEWESNGQPENNYKTTPPVLDSDGSFFLYSKLTVDKSRWQQGNVFSCSVMHEALAYHVTKKELSLSP chain 2: DIQMTQSPSSLSASVGDSVTITCQASTDISSHLNWYQQKPGKAPELLIYYGSHLLSGVPSRFSGSGSGTDFTFTISSLEAEDAATYYCGQGNRLPYTFGQGTKVEIERTVAAPSVFIFPPSDEQLKSGTASVVCLLNNFYPREAKVQWKVDNALQSGNSQESVTEQDSKDSTYSLSSTLTLSKADYEKHKVYACEVTHQGLSSPVTKSFNRGEC | 41 nM |
| F1648 (antibody) chain 1: QVQLQESGPGLVKPSETLSLTCAVSGHSISHDHAWSWVRQPPGEGLEWIGFISYSGITNYNPSLQGRVTISRDNSKNTLYLQMNSLRAEDTAVYYCARSLARTTAMDYWGEGTLVTVSSASTKGPSVFPLAPSSKSTSGGTAALGCLVKDYFPEPVTVSWNSGALTSGVHTFPAVLQSSGLYSLSSVVTVPSSSLGTQTYICNVNHKPSNTKVDKKVEPKSCDKTHTCPPCPAPELRGGPKVFLFPPKPKDTLYITREPEVTCVVVDVSHEDPEVKFNWYVDGVEVHNAKTKPREEQYNSTYRVVSVLTVLHQDWLNGKEYKCKVSNKALPAPIEKTISKAKGQPREPQVYTLPPSRDELTKNQVSLTCLVKGFYPSDIAVEWESNGQPENNYKTTPPVLDSDGSFFLYSKLTVDKSRWQQGNVFSCSVMHEALPYHVTRKDLSLSP chain 2: DIQMTQSPSSLSASVGDSVTITCQASTDISSHLNWYQQKPGKAPELLIYYGSHLLSGVPSRFSGSGSGTDFTFTISSLEAEDAATYYCGQGNRLPYTFGQGTKVEIERTVAAPSVFIFPPSDEQLKSGTASVVCLLNNFYPREAKVQWKVDNALQSGNSQESVTEQDSKDSTYSLSSTLTLSKADYEKHKVYACEVTHQGLSSPVTKSFNRGEC | 38 nM |
| F1644 (antibody) chain 1: QVQLQESGPGLVKPSETLSLTCAVSGHSISHDHAWSWVRQPPGEGLEWIGFISYSGITNYNPSLQGRVTISRDNSKNTLYLQMNSLRAEDTAVYYCARSLARTTAMDYWGEGTLVTVSSASTKGPSVFPLAPSSKSTSGGTAALGCLVKDYFPEPVTVSWNSGALTSGVHTFPAVLQSSGLYSLSSVVTVPSSSLGTQTYICNVNHKPSNTKVDKKVEPKSCDKTHTCPPCPAPELRGGPKVFLFPPKPKDTLYITREPEVTCVVVDVSHEDPEVKFNWYVDGVEVHNAKTKPREEQYNSTYRVVSVLTVLHQDWLNGKEYKCKVSNKALPAPIEKTISKAKGQPREPQVYTLPPSRDELTKNQVSLTCLVKGFYPSDIAVEWESNGQPENNYKTTPPVLDSDGSFFLYSKLTVDKSRWQQGNVFSCSVMHEALKYHVTKKELSLSP chain 2: DIQMTQSPSSLSASVGDSVTITCQASTDISSHLNWYQQKPGKAPELLIYYGSHLLSGVPSRFSGSGSGTDFTFTISSLEAEDAATYYCGQGNRLPYTFGQGTKVEIERTVAAPSVFIFPPSDEQLKSGTASVVCLLNNFYPREAKVQWKVDNALQSGNSQESVTEQDSKDSTYSLSSTLTLSKADYEKHKVYACEVTHQGLSSPVTKSFNRGEC | 35 nM |
| F1642 (antibody) chain 1: QVQLQESGPGLVKPSETLSLTCAVSGHSISHDHAWSWVRQPPGEGLEWIGFISYSGITNYNPSLQGRVTISRDNSKNTLYLQMNSLRAEDTAVYYCARSLARTTAMDYWGEGTLVTVSSASTKGPSVFPLAPSSKSTSGGTAALGCLVKDYFPEPVTVSWNSGALTSGVHTFPAVLQSSGLYSLSSVVTVPSSSLGTQTYICNVNHKPSNTKVDKKVEPKSCDKTHTCPPCPAPELRGGPKVFLFPPKPKDTLYITREPEVTCVVVDVSHEDPEVKFNWYVDGVEVHNAKTKPREEQYNSTYRVVSVLTVLHQDWLNGKEYKCKVSNKALPAPIEKTISKAKGQPREPQVYTLPPSRDELTKNQVSLTCLVKGFYPSDIAVEWESNGQPENNYKTTPPVLDSDGSFFLYSKLTVDKSRWQQGNVFSCSVMHEALAYHVTRKDLSLSP chain 2: DIQMTQSPSSLSASVGDSVTITCQASTDISSHLNWYQQKPGKAPELLIYYGSHLLSGVPSRFSGSGSGTDFTFTISSLEAEDAATYYCGQGNRLPYTFGQGTKVEIERTVAAPSVFIFPPSDEQLKSGTASVVCLLNNFYPREAKVQWKVDNALQSGNSQESVTEQDSKDSTYSLSSTLTLSKADYEKHKVYACEVTHQGLSSPVTKSFNRGEC | 41 nM |
| F1647 (antibody) chain 1: QVQLQESGPGLVKPSETLSLTCAVSGHSISHDHAWSWVRQPPGEGLEWIGFISYSGITNYNPSLQGRVTISRDNSKNTLYLQMNSLRAEDTAVYYCARSLARTTAMDYWGEGTLVTVSSASTKGPSVFPLAPSSKSTSGGTAALGCLVKDYFPEPVTVSWNSGALTSGVHTFPAVLQSSGLYSLSSVVTVPSSSLGTQTYICNVNHKPSNTKVDKKVEPKSCDKTHTCPPCPAPELRGGPKVFLFPPKPKDTLYITREPEVTCVVVDVSHEDPEVKFNWYVDGVEVHNAKTKPREEQYNSTYRVVSVLTVLHQDWLNGKEYKCKVSNKALPAPIEKTISKAKGQPREPQVYTLPPSRDELTKNQVSLTCLVKGFYPSDIAVEWESNGQPENNYKTTPPVLDSDGSFFLYSKLTVDKSRWQQGNVFSCSVMHEALPYHVTKKELSLSP chain 2: DIQMTQSPSSLSASVGDSVTITCQASTDISSHLNWYQQKPGKAPELLIYYGSHLLSGVPSRFSGSGSGTDFTFTISSLEAEDAATYYCGQGNRLPYTFGQGTKVEIERTVAAPSVFIFPPSDEQLKSGTASVVCLLNNFYPREAKVQWKVDNALQSGNSQESVTEQDSKDSTYSLSSTLTLSKADYEKHKVYACEVTHQGLSSPVTKSFNRGEC | 38 nM |
| F1643 (antibody) chain 1: QVQLQESGPGLVKPSETLSLTCAVSGHSISHDHAWSWVRQPPGEGLEWIGFISYSGITNYNPSLQGRVTISRDNSKNTLYLQMNSLRAEDTAVYYCARSLARTTAMDYWGEGTLVTVSSASTKGPSVFPLAPSSKSTSGGTAALGCLVKDYFPEPVTVSWNSGALTSGVHTFPAVLQSSGLYSLSSVVTVPSSSLGTQTYICNVNHKPSNTKVDKKVEPKSCDKTHTCPPCPAPELRGGPKVFLFPPKPKDTLYITREPEVTCVVVDVSHEDPEVKFNWYVDGVEVHNAKTKPREEQYNSTYRVVSVLTVLHQDWLNGKEYKCKVSNKALPAPIEKTISKAKGQPREPQVYTLPPSRDELTKNQVSLTCLVKGFYPSDIAVEWESNGQPENNYKTTPPVLDSDGSFFLYSKLTVDKSRWQQGNVFSCSVMHEALAYHVTKKDLSLSP chain 2: DIQMTQSPSSLSASVGDSVTITCQASTDISSHLNWYQQKPGKAPELLIYYGSHLLSGVPSRFSGSGSGTDFTFTISSLEAEDAATYYCGQGNRLPYTFGQGTKVEIERTVAAPSVFIFPPSDEQLKSGTASVVCLLNNFYPREAKVQWKVDNALQSGNSQESVTEQDSKDSTYSLSSTLTLSKADYEKHKVYACEVTHQGLSSPVTKSFNRGEC | 39 nM |
| F1646 (antibody) chain 1: QVQLQESGPGLVKPSETLSLTCAVSGHSISHDHAWSWVRQPPGEGLEWIGFISYSGITNYNPSLQGRVTISRDNSKNTLYLQMNSLRAEDTAVYYCARSLARTTAMDYWGEGTLVTVSSASTKGPSVFPLAPSSKSTSGGTAALGCLVKDYFPEPVTVSWNSGALTSGVHTFPAVLQSSGLYSLSSVVTVPSSSLGTQTYICNVNHKPSNTKVDKKVEPKSCDKTHTCPPCPAPELRGGPKVFLFPPKPKDTLYITREPEVTCVVVDVSHEDPEVKFNWYVDGVEVHNAKTKPREEQYNSTYRVVSVLTVLHQDWLNGKEYKCKVSNKALPAPIEKTISKAKGQPREPQVYTLPPSRDELTKNQVSLTCLVKGFYPSDIAVEWESNGQPENNYKTTPPVLDSDGSFFLYSKLTVDKSRWQQGNVFSCSVMHEALKYHVTKKDLSLSP chain 2: DIQMTQSPSSLSASVGDSVTITCQASTDISSHLNWYQQKPGKAPELLIYYGSHLLSGVPSRFSGSGSGTDFTFTISSLEAEDAATYYCGQGNRLPYTFGQGTKVEIERTVAAPSVFIFPPSDEQLKSGTASVVCLLNNFYPREAKVQWKVDNALQSGNSQESVTEQDSKDSTYSLSSTLTLSKADYEKHKVYACEVTHQGLSSPVTKSFNRGEC | 35 nM |
| F1645 (antibody) chain 1: QVQLQESGPGLVKPSETLSLTCAVSGHSISHDHAWSWVRQPPGEGLEWIGFISYSGITNYNPSLQGRVTISRDNSKNTLYLQMNSLRAEDTAVYYCARSLARTTAMDYWGEGTLVTVSSASTKGPSVFPLAPSSKSTSGGTAALGCLVKDYFPEPVTVSWNSGALTSGVHTFPAVLQSSGLYSLSSVVTVPSSSLGTQTYICNVNHKPSNTKVDKKVEPKSCDKTHTCPPCPAPELRGGPKVFLFPPKPKDTLYITREPEVTCVVVDVSHEDPEVKFNWYVDGVEVHNAKTKPREEQYNSTYRVVSVLTVLHQDWLNGKEYKCKVSNKALPAPIEKTISKAKGQPREPQVYTLPPSRDELTKNQVSLTCLVKGFYPSDIAVEWESNGQPENNYKTTPPVLDSDGSFFLYSKLTVDKSRWQQGNVFSCSVMHEALKYHVTRKDLSLSP chain 2: DIQMTQSPSSLSASVGDSVTITCQASTDISSHLNWYQQKPGKAPELLIYYGSHLLSGVPSRFSGSGSGTDFTFTISSLEAEDAATYYCGQGNRLPYTFGQGTKVEIERTVAAPSVFIFPPSDEQLKSGTASVVCLLNNFYPREAKVQWKVDNALQSGNSQESVTEQDSKDSTYSLSSTLTLSKADYEKHKVYACEVTHQGLSSPVTKSFNRGEC | 36 nM |
